Where a chain is given by its changes, count along the chain named. Read-outs that look alike come from different tables or passages of the source.
B1: STEAP-1 TCB Molecule F: "2+1 IgG CrossFab, inverted" with charge modifications (VH/VL exchange in CD3 binder, charge modification in STEAP-1 binders) (bispecific antibody)
heavy 1: EVQLVESGGGLVQPGGSLRLSCAVSGYSITSDYAWNWVRQAPGKGLEWVGYISNSGSTSYNPSLKSRFTISRDNSKNTLYLQMNSLRAEDTAVYYCARERNYDYDDYYYAMDYWGQGTLVTVSSASTKGPSVFPLAPSSKSTSGGTAALGCLVEDYFPEPVTVSWNSGALTSGVHTFPAVLQSSGLYSLSSVVTVPSSSLGTQTYICNVNHKPSNTKVDEKVEPKSCDKTHTCPPCPAPEAAGGPSVFLFPPKPKDTLMISRTPEVTCVVVDVSHEDPEVKFNWYVDGVEVHNAKTKPREEQYNSTYRVVSVLTVLHQDWLNGKEYKCKVSNKALGAPIEKTISKAKGQPREPQVCTLPPSRDELTKNQVSLSCAVKGFYPSDIAVEWESNGQPENNYKTTPPVLDSDGSFFLVSKLTVDKSRWQQGNVFSCSVMHEALHNHYTQKSLSLSP
heavy 2: not shown
light 1: DIQMTQSPSSLSASVGDRVTITCKSSQSLLYRSNQKNYLAWYQQKPGKAPKLLIYWASTRESGVPSRFSGSGSGTDFTLTISSLQPEDFATYYCQQYYNYPRTFGQGTKVEIKRTVAAPSVFIFPPSDRKLKSGTASVVCLLNNFYPREAKVQWKVDNALQSGNSQESVTEQDSKDSTYSLSSTLTLSKADYEKHKVYACEVTHQGLSSPVTKSFNRGEC
light 2: EVQLLESGGGLVQPGGSLRLSCAASGFTFSTYAMNWVRQAPGKGLEWVSRIRSKYNNYATYYADSVKGRFTISRDDSKNTLYLQMNSLRAEDTAVYYCVRHGNFGNSYVSWFAYWGQGTLVTVSSASVAAPSVFIFPPSDEQLKSGTASVVCLLNNFYPREAKVQWKVDNALQSGNSQESVTEQDSKDSTYSLSSTLTLSKADYEKHKVYACEVTHQGLSSPVTKSFNRGEC
B2: STEAP-1 TCB Molecule B: "2+1 IgG CrossFab, inverted" without charge modifications (VH/VL exchange in CD3 binder) (bispecific antibody)
light: B1 light 2
chain 1: B1 heavy 1 with N74T, E154K, E220K
chain 2: not shown
chain 3: not shown
B3: STEAP-1 TCB Molecule C: "2+1 IgG CrossFab, inverted" with charge modifications (CH1/CL exchange in CD3 binder, charge modification in STEAP-1 binders) (bispecific antibody)
light: B1 light 1
heavy: B1 heavy 1 with N74T
chain 1: not shown
chain 2: QAVVTQEPSLTVSPGGTVTLTCGSSTGAVTTSNYANWVQEKPGQAFRGLIGGTNKRAPGTPARFSGSLLGGKAALTLSGAQPEDEAEYYCALWYSNLWVFGGGTKLTVLSSASTKGPSVFPLAPSSKSTSGGTAALGCLVKDYFPEPVTVSWNSGALTSGVHTFPAVLQSSGLYSLSSVVTVPSSSLGTQTYICNVNHKPSNTKVDKKVEPKSC
B4: STEAP-1 TCB Molecule A: "2+1 IgG CrossFab, inverted" with charge modifications (VH/VL exchange in CD3 binder, charge modification in STEAP-1 binders) (bispecific antibody)
heavy 1: not shown
heavy 2: B1 heavy 1 with N74T
light 1: B1 light 1
light 2: B1 light 2
B5: STEAP-1 TCB Molecule E: "1+1 IgG CrossMab" with charge modifications (VH/VL exchange in CD3 binder, charge modification in STEAP-1 binder) (bispecific antibody)
heavy 1: B1 heavy 1 with N74T
heavy 2: not shown
light 1: B1 light 1
light 2: B1 light 2

Experiments:
[1] = target: T1, human STEAP-1 (Six-transmembrane epithelial antigen of prostate 1) (human, UniProt Q9UHE8 1-339); test: cell-based or functional assay
T1 sequence (Q9UHE8 whole entry): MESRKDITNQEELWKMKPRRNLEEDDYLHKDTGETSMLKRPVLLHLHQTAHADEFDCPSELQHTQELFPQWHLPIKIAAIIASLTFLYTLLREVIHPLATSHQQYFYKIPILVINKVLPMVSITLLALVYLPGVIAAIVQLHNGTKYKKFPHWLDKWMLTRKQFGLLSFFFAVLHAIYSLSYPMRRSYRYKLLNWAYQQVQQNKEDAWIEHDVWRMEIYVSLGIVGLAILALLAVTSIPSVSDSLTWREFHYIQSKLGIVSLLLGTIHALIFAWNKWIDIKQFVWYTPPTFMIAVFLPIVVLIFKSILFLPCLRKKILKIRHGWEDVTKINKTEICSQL

[2] = target: T1, human STEAP-1 (Six-transmembrane …); test: cell-based or functional assay; remark: listed apart in the source
[3] = target: T1, human STEAP-1 (Six-transmembrane …); test: cell-based or functional assay; remark: listed apart in the source
[4] = target: T1, human STEAP-1 (Six-transmembrane …); test: cell-based or functional assay; remark: listed apart in the source
[5] = target: T1, human STEAP-1 (Six-transmembrane …); test: cell-based or functional assay; remark: listed apart in the source
[6] = target: T1, human STEAP-1 (Six-transmembrane …); test: cell-based or functional assay; remark: listed apart in the source
human CD3 [7] = target: T2, human CD3 (human, UniProt P07766 23-207); test: flow cytometry on Jurkat cells
T2 construct: In the assays CD3 stood as the native complex on Jurkat cells, Jurkat-NFAT reporter cells or primary human T cells; also called CD3 epsilon
T2 sequence (P07766 23-207 limits assumed): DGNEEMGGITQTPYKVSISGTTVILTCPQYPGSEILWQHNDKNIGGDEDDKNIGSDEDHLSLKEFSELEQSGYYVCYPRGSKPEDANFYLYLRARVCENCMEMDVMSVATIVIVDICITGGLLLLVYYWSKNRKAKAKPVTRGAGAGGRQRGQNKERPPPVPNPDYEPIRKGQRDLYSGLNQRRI

[8] = target: T1, human STEAP-1 (Six-transmembrane …); test: cell-based or functional assay; remark: listed apart in the source
[9] = target: T1, human STEAP-1 (Six-transmembrane …); test: flow cytometry on CHO-hSTEAP1 clone 2 cells, anti-human Fc secondary antibody
Description: The binding of STEAP-1 TCB molecules was tested, using STEAP-1-expressing CHO-hSTEAP1, clone 2 cells (an epithelial cell line derived from hamster ovary, that was transfected to stably overexpress human STEAP-1) and CD3-expressing immortalized T lymphocyte cells (Jurkat, DSMZ #ACC 282).
Briefly, adherent CHO-hSTEAP1 cells were harvested, using Cell Dissociation Buffer (Gibco, #13151014) counted, checked for viability and re-suspended at 2×10⁶ cells/ml in FACS buffer (100 μl PBS 0.1% BSA). Jurkat suspension cells were also harvested, counted and checked for viability. 100 μl of cell suspension (containing 0.2×10⁶ cells) were incubated in round-bottom 96-well plate for 30 min at 4° C. with increasing concentrations of the STEAP-1 TCB (31 pM-500 nM), washed twice with cold PBS containing 0.1% BSA (FACS buffer), re-incubated for further 30 min at 4° C. with the 1:50 pre-diluted FITC- or Alexa Fluor 647-conjugated AffiniPure F(ab′)2 Fragment goat-human IgG Fcg Fragment Specific secondary antibody (Jackson Immuno Research Lab, FITC #109-096-098, binding to Jurkats, or Jackson Immuno Research Lab, Alexa Fluor 647 #109-606-008, for binding to CHO-hSTEAP1, dilutions in FACS buffer) and washed twice with cold PBS 0.1% BSA. […] Staining was analyzed by FACS using a FACS Canto II (Software FACS Diva). […]

human CD3 [10] = target: T2, human CD3; test: cell-based or functional assay

Binder | EC50 [pM] 24 h, T-cell mediated killing of LnCAP cells (LDH release, human PBMCs, E:T 10:1) [1] | EC50 [pM] 24 h, T-cell mediated killing of MKN45 cells (LDH release, human PBMCs, E:T 10:1) [1] | EC50 [nM], activation of Jurkat-NFAT reporter cells (luminescence after 6 h) with LnCaP cells [2] | EC50 [pM] 24 h, T-cell mediated lysis of LnCaP cells (LDH release) [3] | EC50 [pM] 48 h, T-cell mediated lysis of LnCaP cells (LDH release) [3] | EC50 [nM], activation of Jurkat-NFAT reporter cells (luminescence after 6 h), presence of CHO-hSTEAP1 [4] | EC50 [nM], activation of Jurkat-NFAT reporter cells (luminescence after 6 h), presence of LnCaP cells [4] | EC50 (pM), activation of primary T cells with LnCaP cells, 48 h: % CD4 + CD25+ [5] | EC50 (pM), activation of primary T cells with LnCaP cells, 48 h: % CD4 + CD69+ [5] | EC50 (pM), activation of primary T cells with LnCaP cells, 48 h: % CD8 + CD25+ [5] | EC50 (pM), activation of primary T cells with LnCaP cells, 48 h: % CD8 + CD69+ [5] | EC50 [pM] 24 h, STEAP-1 TCB-mediated lysis of LnCaP cells (LDH release) [6] | EC50 [pM] 48 h, STEAP-1 TCB-mediated lysis of LnCaP cells (LDH release) [6] | binding result (human CD3 [7]) | EC50 [nM], activation of Jurkat-NFAT reporter cells (luminescence after 6 h), presence of CHO-hSTEAP1 [8] | EC50 [9] | EC50 [nM], activation of Jurkat-NFAT reporter cells (luminescence after 6 h), presence of STEAP-1-negative CHO-K1 (human CD3 [10])
B1 | 100 pM | 1500 pM | – | – | – | – | – | – | – | – | – | – | – | – | – | – | –
B2 | – | – | 5.73 nM | 95.7 pM | 22.9 pM | – | – | – | – | – | – | – | – | – | – | – | –
B3 | – | – | 39.5 nM | 152 pM | 12.8 pM | – | – | – | – | – | – | – | – | – | – | – | –
B4 | – | – | 3.58 nM | 36.8 pM | 31.4 pM | 7.19 nM | 1.36 nM | 447 pM | 300 pM | 271 pM | 124 pM | 13.7 pM | 6.35 pM | binds | 0.1 nM | 20.2 nM | –
B5 | – | – | – | – | – | 0.51 nM | 0.054 nM | 7960 pM | 4310 pM | 5060 pM | 588 pM | 1860 pM | 1560 pM | – | 0.79 nM | – | 18.8 nM

Source: patent publication US20170096495A1 (Hoffmann-La Roche, published 2017)
